Reference: article PMC6522554

Molecular target: BF520.M6.I1 Env (HIV-1 (clade A, infant BF520))

B1: BF520.1 mature mAb (IgG) (antibody, V domains shown)
VH: QVQLVQSGAEMKMPGASVKVSCKASGYTFTGNYIHWVRQAPGQGLEWMGWIAPHSGDTSYAQRFQGRVTMTGDTSLSTAYMELSRLRSDDTAVYYCARGPFPNYYGPGSYWGGLDFWGQGTLVSVSS
VL: EIVMTQSPATLSVSLGERATLSCRTSQNVAYNFAWYQQKPGQAPRLLIYEASSRATGTPARFSGSGFGTEFTLTISSMQSEDFAVYYCQQYNNWPSPFTFGPGTKVHIK
B1 was tested, and the potency (IC50) of neutralization of the autologous pseudovirus BF520.M6.I1 was 1.1 μg ml^−1.
